The values below come from FireProtDB (doi:10.1016/0022-2836(92)90906-z).

The chains are these.
B1: Ribonuclease, P00648 (parent)
chain: MMKMEGIALKKRLSWISVCLLVLVSAAGMLFSTAAKTETSSHKAHTEAQVINTFDGVADYLQTYHKLPDNYITKSEAQALGWVASKGNLADVAPGKSIGGDIFSNREGKLPGKSGRTWREADINYTSGFRNSDRILYSSDWLIYKTTDHYQTFTKIR

The series covers variants of B1. To be noted: Bacillus amyloliquefaciens; pH 6.3; 25 °C; Urea; Fluorescence; MES 1.00 M; NaCl 613 mM; reversible: yes; structure 1BNI; whole UniProt chain shown.

Regarding MMKMEGIALKKRLSWISVCLLVLVSAAGMLFSTAAKTETSSHKAHTEAQVINTFDGVADYLQTYAKLPDNYITKSEAQALGWVASKGNLADVAPGKSIGGDIFSNREGKLPGKSGRTWREADINYTSGFRNSDRILYSSDLLIYKTTDHYQTFTKIR [H65A W141L], the “ddG of mutation (higher = less stable)” value was 2.3 kcal/mol, the denaturant m value worked out at 1.94 kcal/mol/M, the “denaturant midpoint (higher = more stable)” value (“denaturant midpoint” below) came out at 3.36 M and the unfolding free energy was determined as 6.5 kcal/mol.

On to MMKMEGIALKKRLSWISVCLLVLVSAAGMLFSTAAKTETSSHKAHTEAQVINTFDGVADYLQTYGKLPDNYITKSEAQALGWVASKGNLADVAPGKSIGGDIFSNREGKLPGKSGRTWREADINYTSGFRNSDRILYSSDWLIYKTTDHYQTFTKIR [H65G], for which the “ddG of mutation (higher = less stable)” value is 0.7 kcal/mol, the denaturant m value stood at 1.91 kcal/mol/M, the “denaturant midpoint” value is 4.21 M and the unfolding free energy was 8.1 kcal/mol.

As to MMKMEGIALKKRLSWISVCLLVLVSAAGMLFSTAAKTETSSHKAHTEAQVINTFDGVADYLQTYDKLPDNYITKSEAQALGWVASKGNLADVAPGKSIGGDIFSNREGKLPGKSGRTWREADINYTSGFRNSDRILYSSDWLIYKTTDHYQTFTKIR [H65D], the “ddG of mutation (higher = less stable)” value is 2.2 kcal/mol, the denaturant m value was determined as 2.04 kcal/mol/M, the “denaturant midpoint” value was determined as 3.26 M and the unfolding free energy stood at 6.6 kcal/mol.

Take MMKMEGIALKKRLSWISVCLLVLVSAAGMLFSTAAKTETSSHKAHTEAQVINTFDGVADYLQTYNKLPDNYITKSEAQALGWVASKGNLADVAPGKSIGGDIFSNREGKLPGKSGRTWREADINYTSGFRNSDRILYSSDWLIYKTTDHYQTFTKIR [H65N]: the “ddG of mutation (higher = less stable)” value was determined as 1.8 kcal/mol, the denaturant m value came to 1.89 kcal/mol/M, the “denaturant midpoint” value is 3.71 M and the unfolding free energy worked out at 7 kcal/mol.

As to MMKMEGIALKKRLSWISVCLLVLVSAAGMLFSTAAKTETSSHKAHTEAQVINTFDGVADYLQTYRKLPDNYITKSEAQALGWVASKGNLADVAPGKSIGGDIFSNREGKLPGKSGRTWREADINYTSGFRNSDRILYSSDWLIYKTTDHYQTFTKIR [H65R], the “ddG of mutation (higher = less stable)” value was 1 kcal/mol, the denaturant m value was determined as 1.97 kcal/mol/M, the “denaturant midpoint” value was determined as 3.97 M and the unfolding free energy is 7.8 kcal/mol.

Take MMKMEGIALKKRLSWISVCLLVLVSAAGMLFSTAAKTETSSHKAHTEAQVINTFDGVADYLQTYKKLPDNYITKSEAQALGWVASKGNLADVAPGKSIGGDIFSNREGKLPGKSGRTWREADINYTSGFRNSDRILYSSDWLIYKTTDHYQTFTKIR [H65K]: the “ddG of mutation (higher = less stable)” value worked out at 0.9 kcal/mol, the denaturant m value is 1.99 kcal/mol/M, the “denaturant midpoint” value worked out at 3.96 M and the unfolding free energy was determined as 7.9 kcal/mol.

Take MMKMEGIALKKRLSWISVCLLVLVSAAGMLFSTAAKTETSSHKAHTEAQVINTFDGVADYLQTYAKLPDNYITKSEAQALGWVASKGNLADVAPGKSIGGDIFSNREGKLPGKSGRTWREADINYTSGFRNSDRILYSSDWLIYKTTDHYQTFTKIR [H65A]: the “ddG of mutation (higher = less stable)” value was 1.9 kcal/mol, the denaturant m value is 1.91 kcal/mol/M, the “denaturant midpoint” value came out at 3.62 M and the unfolding free energy turned out to be 6.9 kcal/mol.

On to MMKMEGIALKKRLSWISVCLLVLVSAAGMLFSTAAKTETSSHKAHTEAQVINTFDGVASYLQTYHKLPDNYITKSEAQALGWVASKGNLADVAPGKSIGGDIFSNREGKLPGKSGRTWREADINYTSGFRNSDRILYSSDWLIYKTTDHYQTFTKIR [D59S], for which the “ddG of mutation (higher = less stable)” value is 0.9 kcal/mol, the denaturant m value was 1.85 kcal/mol/M, the “denaturant midpoint” value was found to be 4.29 M and the unfolding free energy turned out to be 7.9 kcal/mol.

Take MMKMEGIALKKRLSWISVCLLVLVSAAGMLFSTAAKTETSSHKAHTEAQVINTFDGVAGYLQTYHKLPDNYITKSEAQALGWVASKGNLADVAPGKSIGGDIFSNREGKLPGKSGRTWREADINYTSGFRNSDRILYSSDWLIYKTTDHYQTFTKIR [D59G]: the “ddG of mutation (higher = less stable)” value amounted to 0.2 kcal/mol, the denaturant m value came to 1.87 kcal/mol/M, the “denaturant midpoint” value is 3.97 M and the unfolding free energy is 8.6 kcal/mol.

Take MMKMEGIALKKRLSWISVCLLVLVSAAGMLFSTAAKTETSSHKAHTEAQVINTFGGVADYLQTYHKLPDNYITKSEAQALGWVASKGNLADVAPGKSIGGDIFSNREGKLPGKSGRTWREADINYTSGFRNSDRILYSSDWLIYKTTDHYQTFTKIR [D55G]: the “ddG of mutation (higher = less stable)” value stood at 1.3 kcal/mol, the denaturant m value was 1.89 kcal/mol/M, the “denaturant midpoint” value was found to be 3.97 M and the unfolding free energy was found to be 7.5 kcal/mol.

MMKMEGIALKKRLSWISVCLLVLVSAAGMLFSTAAKTETSSHKAHTEAQVINTFSGVADYLQTYHKLPDNYITKSEAQALGWVASKGNLADVAPGKSIGGDIFSNREGKLPGKSGRTWREADINYTSGFRNSDRILYSSDWLIYKTTDHYQTFTKIR [D55S]: the “ddG of mutation (higher = less stable)” value amounted to 0.7 kcal/mol, the denaturant m value is 1.99 kcal/mol/M, the “denaturant midpoint” value was determined as 4.07 M and the unfolding free energy amounted to 8.1 kcal/mol.

For the variant MMKMEGIALKKRLSWISVCLLVLVSAAGMLFSTAAKTETSSHKAHTEAQVINPFDGVADYLQTYHKLPDNYITKSEAQALGWVASKGNLADVAPGKSIGGDIFSNREGKLPGKSGRTWREADINYTSGFRNSDRILYSSDWLIYKTTDHYQTFTKIR [T53P], the “ddG of mutation (higher = less stable)” value was 3.3 kcal/mol, the denaturant m value was 1.83 kcal/mol/M, the “denaturant midpoint” value amounted to 2.99 M and the unfolding free energy came out at 5.5 kcal/mol.

As for MMKMEGIALKKRLSWISVCLLVLVSAAGMLFSTAAKTETSSHKAHTEAQVINTFDGVADYLQTSHKLPDNYITKSEAQALGWVASKGNLADVAPGKSIGGDIFSNREGKLPGKSGRTWREADINYTSGFRNSDRILYSSDWLIYKTTDHYQTFTKIR [Y64S], the “ddG of mutation (higher = less stable)” value stood at 2 kcal/mol, the denaturant m value was determined as 2.08 kcal/mol/M, the “denaturant midpoint” value turned out to be 3.25 M and the unfolding free energy stood at 6.8 kcal/mol.

Turning to MMKMEGIALKKRLSWISVCLLVLVSAAGMLFSTAAKTETSSHKAHTEAQVINTFDGVADYLQTGHKLPDNYITKSEAQALGWVASKGNLADVAPGKSIGGDIFSNREGKLPGKSGRTWREADINYTSGFRNSDRILYSSDWLIYKTTDHYQTFTKIR [Y64G], the “ddG of mutation (higher = less stable)” value amounted to 4 kcal/mol, the denaturant m value was 1.91 kcal/mol/M, the “denaturant midpoint” value is 2.5 M and the unfolding free energy is 4.8 kcal/mol.

For the variant MMKMEGIALKKRLSWISVCLLVLVSAAGMLFSTAAKTETSSHKAHTEAQVINTFDGVADYLQTYKKLPDNYITKSEAQALGWVASKGNLADVAPGKSIGGDIFSNREGKLPGKSGRTWREADINYTSGFRNSDRILYSSDLLIYKTTDHYQTFTKIR [H65K W141L], the “ddG of mutation (higher = less stable)” value came to 2.7 kcal/mol, the denaturant m value came to 1.8 kcal/mol/M, the “denaturant midpoint” value was determined as 3.37 M and the unfolding free energy was 6.1 kcal/mol.

Regarding MMKMEGIALKKRLSWISVCLLVLVSAAGMLFSTAAKTETSSHKAHTEAQVINTFDGVADYLQAYHKLPDNYITKSEAQALGWVASKGNLADVAPGKSIGGDIFSNREGKLPGKSGRTWREADINYTSGFRNSDRILYSSDWLIYKTTDHYQTFTKIR [T63A], the “ddG of mutation (higher = less stable)” value was 0.5 kcal/mol, the denaturant m value worked out at 1.88 kcal/mol/M, the “denaturant midpoint” value turned out to be 4.43 M and the unfolding free energy stood at 8.3 kcal/mol.
